According to patent US20230416375A1 (VERSAPEUTICS, published 2023):
Where a chain is given by its changes, count along the chain named. Read-outs that look alike come from different tables or passages of the source.

How the values were obtained:
full length mouse RYK = molecular target: T1, full length mouse RYK (mouse, UniProt Q01887 35-594); test: Western blot of RIPA lysates (30 µg per lane) of transfected HEK293 cells, Ab5.5_Var1 at 1 µg/mL, anti-human secondary, LI-COR detection
T1 construct: Expressed from a plasmid (Macheda et al.) in HEK293, and the lysate was probed by Western blot; also called Mus musculus Ryk

[1] = molecular target: … variants with 13V replaced by other amino acids; test: peptide microarray substitution scan, Ab5.5_var1 at 100 µg/mL
[2] = molecular target: … variants with 7R replaced by other amino acids; test: as above
[3] = molecular target: … variants with 12P exchanged by other amino acids; test: as above
[4] = molecular target: … variants with 8T exchanged by other amino acids; test: as above
full length human RYK = full length human RYK (human, UniProt P34925 26-607); test: cell-based or functional assay
[5] = molecular target: T2, peptides with the highly basic consensus motif SSKNFTVLNFKRRK (SEQ ID NO:29) (human); test: PEPperMAP linear epitope mapping: microarray of 15-mer peptides (14 aa overlap) of human Ryk 134-227, antibody at 10 µg/mL, goat anti-human IgG (Fc) DyLight680
T2 construct: Array spots were 15-mers sharing this motif; also called Homo sapiens Ryk(179-192)
T2 peptide: SSKNFTVLNFKRRK

[6] = molecular target: T3, peptides with the consensus motif TSRTIYDPV (SEQ ID NO:28) (human); test: as above
T3 construct: The array spots were adjacent 15-mers of human Ryk 134-227 sharing this motif; also called Homo sapiens Ryk(210-218)
T3 peptide: TSRTIYDPV

[7] = molecular target: T4, peptides with the highly basic consensus motif RRKMCYKKLEEVK (SEQ ID NO:31) (human); test: as above
T4 construct: Array spots were 15-mers sharing this motif; also called Homo sapiens Ryk(190-202)
T4 peptide: RRKMCYKKLEEVK

[8] = molecular target: T5, peptides with the highly basic consensus motif TVLNFKRRKMCYKK (SEQ ID NO:30) (human); test: as above
T5 construct: Array spots were 15-mers sharing this motif; also called Homo sapiens Ryk(184-197)
T5 peptide: TVLNFKRRKMCYKK

[9] = molecular target: T6, wild type peptide LDKNTSRTIYDPVHA (SEQ ID NO:32) (human); test: peptide microarray substitution scan, Ab5.5_var1 at 100 µg/mL
T6 construct: Printed on a peptide microarray; also called Homo sapiens Ryk(206-220)
T6 peptide: LDKNTSRTIYDPVHA

[10] = molecular target: T7, … variant with 9I exchanged by L (human); test: as above
T7 construct: Substitution scan peptide
T7 peptide: LDKNTSRTLYDPVHA

[11] = molecular target: T2, peptides with the highly basic …; test: PEPperMAP linear epitope mapping: microarray of 15-mer peptides (14 aa overlap) of human Ryk 134-227, antibody at 10 µg/mL, goat anti-human IgG (Fc) DyLight680
[12] = molecular target: T3, peptides with the consensus motif …; test: as above
[13] = molecular target: T4, peptides with the highly basic …; test: as above
[14] = molecular target: T5, peptides with the highly basic …; test: as above
[15] = molecular target: T8, single peptide NSSKNFTVLNFKRRK (SEQ ID NO:35) (human); test: PEPperMAP linear epitope mapping: microarray of 15-mer peptides (14 aa overlap) of human Ryk 134-227, antibody at 100 µg/mL, goat anti-human IgG (Fc) DyLight680
T8 construct: also called Homo sapiens Ryk(178-192)
T8 peptide: NSSKNFTVLNFKRRK

[16] = molecular target: T9, peptides with the basic consensus motif VLNFKRRKMCYKK (SEQ ID NO:36) (human); test: as above
T9 construct: Array spots were 15-mers sharing this motif; also called Homo sapiens Ryk(185-197)
T9 peptide: VLNFKRRKMCYKK

[17] = molecular target: T3, peptides with the consensus motif …; test: as above
[18] = molecular target: T4, peptides with the highly basic …; test: PEPperMAP linear epitope mapping: microarray of 15-mer peptides (14 aa overlap) of human Ryk 134-227, goat anti-human IgG (Fc) DyLight680
[19] = molecular target: … variants with 10Y exchanged by other amino acids; test: peptide microarray substitution scan, Ab5.5 at 1 µg/mL
[20] = molecular target: … variants with 13V replaced by other amino acids; test: as above
[21] = molecular target: … variants with 7R replaced by other amino acids; test: as above
[22] = molecular target: … variants with 11D exchanged by other amino acids; test: as above
[23] = molecular target: … variants with 12P exchanged by other amino acids; test: as above
[24] = molecular target: … variants with 8T exchanged by other amino acids; test: as above
[25] = molecular target: T6, wild type peptide LDKNTSRTIYDPVHA (SEQ …); test: as above
[26] = molecular target: T7, … variant with 9I exchanged by L; test: as above

B1: Ab5.5_var1 (antibody, V domains shown)
VH: EVQLVESGGGLVQPGGSLRLSCAASGFTFSSYTMSWIRQAPGKGLEWVAYISNGGGGTYYPDSVKGRFTISRDNAKNTLYLQMNSLRAEDTAVYYCTRHGDNGDYWGHGSLVTVSS
VL: DIQMTQSPSSLSASVGDRVTITCKASQDINSYLSWIQQKPGKAPKTLIYRANRLVDGVPSRFSGSGSGTDYTLTISSLQPEDFATYYCLQYDEFPLTFGAGTKVEIK
notes: Detected with anti-human IgG (Fc); also called variant 1; v1
Question: What does the source list for B1?
Answer: binding result (full length mouse RYK): binds; % lower spot intensity than the wild type peptide [1]: > 62%; % lower spot intensity than the wild type peptide [2]: > 70%; % lower spot intensity than the wild type peptide [3]: 35%; % lower spot intensity than the wild type peptide [4]: 7.5%; IC50 of inhibition of canonical Wnt signaling (luciferase reporter) in HEK 293 STF cells stimulated with 250 ng/mL human Wnt-3a (full length human RYK): 484 µg/mL; binding result [5]: binds; binding result [6]: binds; binding result [7]: binds; binding result [8]: binds; binding result [9]: binds; binding result [10]: binds

B2: Ab5.5_var2 (antibody, V domains shown)
VH: B1 VH with T78S, H108Q
VL: B1 VL
notes: Detected with anti-human IgG; also called Variant 2; variant 2
Question: Does B2 bind [11]?
Answer: binds

Question: Does B2 bind [12]?
Answer: binds

Question: Does B2 bind [13]?
Answer: binds

Question: Does B2 bind [14]?
Answer: binds

B3: Ab5.5_var10 (antibody, V domains shown)
VH: B1 VH with V48A, N53T, P61V, T78S
VL: B1 VL with V19A, A100G
notes: Detected with anti-human IgG; also called variant 10; v10
Question: Does B3 bind [15]?
Answer: binds

Question: Does B3 bind [16]?
Answer: binds

Question: Does B3 bind [17]?
Answer: binds

Question: Does B3 bind [18]?
Answer: no binding (tested: 100 µg/mL)

B4: Ab5.5 (antibody, V domains shown)
VH: EVKLVESGGDLVQPGGSLKLSCAASGFTFSSYTMSWIRQTPEKRLEWVAYISNGGGGTYYPDTVKGRFTISRDNAKNTLYLQMNSLKSEDTAMYYCTRHGDNGDYWGHGSTLTVSS
VL: DIKMTQSPSSMYASLGERVTITCKASQDINSYLSWIQQKPGKSPKTLIYRANRLVDGVPSRFSGSGSGQDYSLTISSLEYEDMGIYYCLQYDEFPLTFGAGTKLELK
notes: Parental murine variable domains; also called Chimera antibody; Parental
Question: How did the % lower spot intensity than the wild type peptide [19] turn out when B4 was run?
Answer: > 83%

Question: What about the % lower spot intensity than the wild type peptide [20] of the same binder?
Answer: > 58%

Question: What about the % lower spot intensity than the wild type peptide [21] of the same binder?
Answer: > 67%

Question: And the % lower spot intensity than the wild type peptide [22]?
Answer: > 83%

Question: What about the % lower spot intensity than the wild type peptide [23] of the same binder?
Answer: 33%

Question: What about the % lower spot intensity than the wild type peptide [24] of the same binder?
Answer: 27%

Question: Does B4 bind [25]?
Answer: binds

Question: Does B4 bind [26]?
Answer: binds
